Measured values: paper PMC8419023

Molecular target: FITC-Skp2^77−86 peptide (human) (UniProt Q13309)
Experiment: fluorescence polarisation

Sequence of FITC-Skp2^77−86 peptide (human) (Q13309 whole entry, looked up, tested part not stated): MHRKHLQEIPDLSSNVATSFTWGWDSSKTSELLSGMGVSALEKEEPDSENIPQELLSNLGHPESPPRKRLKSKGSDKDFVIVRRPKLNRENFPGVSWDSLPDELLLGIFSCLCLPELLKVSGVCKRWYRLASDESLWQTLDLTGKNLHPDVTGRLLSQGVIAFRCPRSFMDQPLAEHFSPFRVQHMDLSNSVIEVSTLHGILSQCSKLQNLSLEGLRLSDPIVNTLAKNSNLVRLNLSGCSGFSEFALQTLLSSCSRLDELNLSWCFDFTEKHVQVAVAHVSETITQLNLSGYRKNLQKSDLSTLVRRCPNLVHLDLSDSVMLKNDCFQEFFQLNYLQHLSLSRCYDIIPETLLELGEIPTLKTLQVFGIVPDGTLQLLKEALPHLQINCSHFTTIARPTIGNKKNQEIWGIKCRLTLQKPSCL

fold reduction of binding affinity against wild type: 5 fold
Substance: CDK2-cyclin A M210A/I213A (from UniProt P24941 1-298; P20248 173-432) (complex)
